Measured values as given in the supplement of paper PMC10724198.
± gives the standard deviation of the averaged measurements.
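Note: PSI is a weighted mean of sequencing reads over stability bins, variants kept only with over 10 reads, mCherry proximal and sfGFP distal, peptide attached via GGGS linker.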

Each sequence was assayed on Saccharomyces cerevisiae (assay: protein stability index of tFT-peptide fusion (C-terminal peptide) (PSI (0-1 scale)); higher = more stable (slower turnover)). Details: genetic background: wild type; temperature: 30 C.
PSGSNPPRTIPT gave a protein stability index of 0.713 ± 0.017. PSKLNLSRKPEC was tested, and the protein stability index was 0.677 ± 0.018. For PSLFFLPPPPSP, the protein stability index was 0.695 ± 0.0096. PSLGLQAPTPCP was tested, and the protein stability index was 0.679 ± 0.012. With PSLIRTPTTPSP the protein stability index was 0.69 ± 0.018. With PSLLSPTPPTTD the protein stability index was 0.711 ± 0.075. Sequence PSLPPPPPRAFS has a protein stability index of 0.649 ± 0.0028. In the case of PSLSPAPLPGLP, the protein stability index is reported as 0.706 ± 0.042. For PSNLNASLASRV, the protein stability index was 0.655 ± 0.015. PSPALPVHPPLQ was tested, and the protein stability index was 0.687 ± 0.011. PSPARLFVSPSP gave a protein stability index of 0.649 ± 0.04. Work on PSPFPPPLPPHL yielded a protein stability index of 0.767 ± 0.064. With PSPLCDFTRSSI the protein stability index was 0.659 ± 0.025. Sequence PSPLLPAPRRPP has a protein stability index of 0.684 ± 0.085. With PSPPASSPPLPL the protein stability index was 0.665 ± 0.02. PSPPLPLPLLSV gave a protein stability index of 0.633 ± 0.029. Work on PSPPPAIFPFVS yielded a protein stability index of 0.71 ± 0.059. PSPPPHGLPRPA gave a protein stability index of 0.675 ± 0.06. In the case of PSPPPLSPPTPR, the protein stability index is reported as 0.667 ± 0.016. In the case of PSPPPPGLFPLP, the protein stability index is reported as 0.632 ± 0.044. PSPPPRRPPAPP was tested, and the protein stability index was 0.666 ± 0.017. With PSPPPSLLPTPP the protein stability index was 0.679 ± 0.063. In the case of PSPPPTPPLICL, the protein stability index is reported as 0.697 ± 0.025. Work on PSPPSHRFPAIP yielded a protein stability index of 0.697 ± 0.0081. PSPRPPPPPPPP was tested, and the protein stability index was 0.66 ± 0.025. In the case of PSPRSFLSIRFL, the protein stability index is reported as 0.581 ± 0.013. PSPTAPGPSIPP showed a protein stability index of 0.667 ± 0.049. Sequence PSRPAHSPPVPP has a protein stability index of 0.646 ± 0.02. PSRSATRPFPLS gave a protein stability index of 0.707 ± 0.071. PSRVPSSVPLAP was tested, and the protein stability index was 0.6864 ± 0.0061. PSSPPDLAFRPP was tested, and the protein stability index was 0.6157 ± 0.0049. With PSSPPSLRLPPL the protein stability index was 0.701 ± 0.044. In the case of PSSRPPPPPPPP, the protein stability index is reported as 0.698 ± 0.037. For PSSRRRLLPPPH, the protein stability index was 0.71 ± 0.12. Sequence PSSWGRFLRRRP has a protein stability index of 0.7 ± 0.024. In the case of PSVSPVRLPYLL, the protein stability index is reported as 0.687 ± 0.035. Work on PTAESFNVRKRD yielded a protein stability index of 0.723 ± 0.086. In the case of PTAPLIPTGGAP, the protein stability index is reported as 0.685 ± 0.029. Sequence PTCALPKLLTHP has a protein stability index of 0.796 ± 0.021. PTDAFFGLCMDC showed a protein stability index of 0.68 ± 0.038. PTGQEFYRGGTR gave a protein stability index of 0.6927 ± 0.0047. For PTGSHARRRPRR, the protein stability index was 0.65 ± 0.023. Work on PTLLQPPPPSYP yielded a protein stability index of 0.704 ± 0.048. For PTLPGEQPRSWQ, the protein stability index was 0.6701 ± 0.0049. PTMKLPLLSCAR showed a protein stability index of 0.602 ± 0.091. For PTPGSPPPPLHP, the protein stability index was 0.706 ± 0.02. In the case of PTPHHPPPHPGP, the protein stability index is reported as 0.726 ± 0.042. For PTPLLTQHPRRP, the protein stability index was 0.72 ± 0.043. Sequence PTPLRILFALTP has a protein stability index of 0.611 ± 0.12. PTPMLPNYPWSR gave a protein stability index of 0.7431 ± 0.0015. Work on PTPPHPTSPPPP yielded a protein stability index of 0.693 ± 0.01. In the case of PTPPPAFGFPPP, the protein stability index is reported as 0.688 ± 0.16. In the case of PTPPTAAPAAPR, the protein stability index is reported as 0.714 ± 0.053. Work on PTPPVPPPRTLL yielded a protein stability index of 0.667 ± 0.055. PTPRPTRSPPPP was tested, and the protein stability index was 0.689 ± 0.01. For PTPSLPCPDHPL, the protein stability index was 0.693 ± 0.0098. PTQPVPPRTPHY gave a protein stability index of 0.6698 ± 0.0051. PTRAPVKPDQHP was tested, and the protein stability index was 0.798 ± 0.072. PTTTPPPTPITG showed a protein stability index of 0.76 ± 0.065. For PTTTRSKDKVQR, the protein stability index was 0.738 ± 0.041. Work on PTTVPPGPTSVH yielded a protein stability index of 0.755 ± 0.058. With PTVKVLSWLAGH the protein stability index was 0.703 ± 0.018. Work on PVASSPLLPSPS yielded a protein stability index of 0.649 ± 0.061. With PVFDSRDRTFSH the protein stability index was 0.713 ± 0.042. For PVHPPAPHPSPP, the protein stability index was 0.663 ± 0.037. PVPCNYSPVIHL gave a protein stability index of 0.688 ± 0.029. For PVPKFKEPKIWW, the protein stability index was 0.698 ± 0.021. Sequence PVPPGYFLRSPP has a protein stability index of 0.701 ± 0.032. PVPRPSERSFLL was tested, and the protein stability index was 0.7316 ± 0.0057. PVPSYYHKPPPL was tested, and the protein stability index was 0.704 ± 0.019. With PVRFGNCPSILS the protein stability index was 0.7725 ± 0.0012. Work on PVSCPPPPLHMS yielded a protein stability index of 0.661 ± 0.013. Work on PVSNVFDLTGMT yielded a protein stability index of 0.683 ± 0.021. Sequence PVSPCSQRGIFV has a protein stability index of 0.692 ± 0.01. Work on PVVFFSYPLPSF yielded a protein stability index of 0.699 ± 0.019. For PWCTPVKRGTSM, the protein stability index was 0.763 ± 0.056. PWDGFGPYAPYP gave a protein stability index of 0.657 ± 0.081. For PWPLPLPPSSLP, the protein stability index was 0.684 ± 0.018. Sequence PWVNLFPCQINI has a protein stability index of 0.639 ± 0.02. For PYAHTKGSLGML, the protein stability index was 0.6352 ± 0.0013. With PYNLSSRPSTLL the protein stability index was 0.625 ± 0.053.
